Assays:
[1] = molecular target: T1, FGF5 (human, UniProt P12034 21-268); test: SPR; 4 eq low-MW heparin; SPR (BIAcore X): 20 mM Tris-HCl pH 7.4, 200 mM NaCl, 5 mM MgCl2, 5 mM CaCl2, 0.05% Tween20, 4 eq low-MW heparin; temperature not stated; settings: protein: commercial; label: none; multi-branched loop (predicted)
T1 sequence: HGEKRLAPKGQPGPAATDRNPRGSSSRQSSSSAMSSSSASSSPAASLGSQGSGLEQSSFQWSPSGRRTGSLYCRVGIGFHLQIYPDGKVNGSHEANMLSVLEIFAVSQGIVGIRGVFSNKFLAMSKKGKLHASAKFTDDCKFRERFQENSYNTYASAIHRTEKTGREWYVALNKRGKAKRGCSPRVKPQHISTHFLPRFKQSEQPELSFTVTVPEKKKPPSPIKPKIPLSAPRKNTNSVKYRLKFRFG

[2] = molecular target: T2, FGF6 (human, UniProt P10767 38-208); test: SPR; 100 nM protein, 4 eq low-MW heparin; SPR (BIAcore X): 20 mM Tris-HCl pH 7.4, 200 mM NaCl, 5 mM MgCl2, 5 mM CaCl2, 0.05% Tween20, 4 eq low-MW heparin; temperature not stated; settings: protein: commercial; label: none; multi-branched loop (predicted)
T2 sequence: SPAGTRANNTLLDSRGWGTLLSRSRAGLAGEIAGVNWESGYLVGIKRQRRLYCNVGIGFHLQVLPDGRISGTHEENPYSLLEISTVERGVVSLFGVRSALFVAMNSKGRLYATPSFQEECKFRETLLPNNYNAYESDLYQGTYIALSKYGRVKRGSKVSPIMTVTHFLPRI

[3] = molecular target: FGF1 (human, UniProt P05230 16-155); test: as above; settings: protein: commercial; label: none; multi-branched loop (predicted)
[4] = molecular target: FGF2 (human, UniProt P09038 143-288); test: as above; settings: protein: commercial; label: none; multi-branched loop (predicted)
[5] = molecular target: T3, FGF4 (human, UniProt P08620 31-206); test: as above; settings: protein: commercial; label: none; multi-branched loop (predicted)
T3 sequence: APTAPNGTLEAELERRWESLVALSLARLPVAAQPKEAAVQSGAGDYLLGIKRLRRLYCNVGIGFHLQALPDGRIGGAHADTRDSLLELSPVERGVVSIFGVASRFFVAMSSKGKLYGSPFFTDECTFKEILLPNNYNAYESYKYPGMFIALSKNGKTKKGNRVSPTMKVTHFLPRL

[6] = molecular target: FGFR1alpha (IIIc)-Fc chimera (human, UniProt P11362 22-376); test: as above; settings: protein: commercial; tags: Fc; chain copies: 2; label: none; multi-branched loop (predicted)
FGFR1alpha (IIIc)-Fc chimera, sequence (P11362 22-376, change not shown): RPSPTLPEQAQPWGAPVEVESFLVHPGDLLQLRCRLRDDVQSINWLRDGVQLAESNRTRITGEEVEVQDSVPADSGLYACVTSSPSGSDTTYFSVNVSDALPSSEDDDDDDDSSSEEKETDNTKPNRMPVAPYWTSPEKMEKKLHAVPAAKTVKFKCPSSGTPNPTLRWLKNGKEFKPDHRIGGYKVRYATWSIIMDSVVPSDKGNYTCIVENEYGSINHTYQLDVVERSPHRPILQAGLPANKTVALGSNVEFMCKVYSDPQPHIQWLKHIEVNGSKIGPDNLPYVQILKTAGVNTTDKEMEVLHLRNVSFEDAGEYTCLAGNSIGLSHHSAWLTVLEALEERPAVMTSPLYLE

FGF1, sequence (P05230 16-155): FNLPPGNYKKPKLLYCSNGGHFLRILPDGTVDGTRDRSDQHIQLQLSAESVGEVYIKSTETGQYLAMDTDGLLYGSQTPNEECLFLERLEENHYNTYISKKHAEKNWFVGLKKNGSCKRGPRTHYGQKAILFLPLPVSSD
FGF2, sequence (P09038 143-288): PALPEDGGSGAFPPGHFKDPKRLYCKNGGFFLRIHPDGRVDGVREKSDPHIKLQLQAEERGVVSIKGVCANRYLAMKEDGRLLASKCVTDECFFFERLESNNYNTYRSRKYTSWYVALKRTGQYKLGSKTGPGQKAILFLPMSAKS

B1: F5f1 (structured_RNA)
RNA: GGGCUAGCUGAUCGUACCUCUCCGUACUGACCUACAGAGCGACAUACUAGUGUAUCCAGAUACUAACAGCUAACACCC
modifications: 2'-fluoro pyrimidines (all C and U)
Kd [1]: 0.7 ± 0.2 nM | binding result [2]: no binding | binding result [3]: no binding | binding result [4]: no binding | binding result [5]: no binding | binding result [6]: no binding

B2: F5f3 (structured_RNA)
RNA: GGGCUAGCUGAUCGUACCUAGCGUGAAUCCAACACGCUUGACAUGCAAACUGCAUCCAGAUACUAACAGCUAACACCC
modifications: 2'-fluoro pyrimidines (all C and U)
Kd [1]: 0.57 ± 0.02 nM

B3: F5f1_56 (structured_RNA)
RNA: GGGCGACCUCUCCGUACUGACCUACAGAGCGACAUACUAGUGUAUCCAGAUCGCCC
modifications: 2'-fluoro pyrimidines (all C and U)
Kd [1]: 0.118 ± 0.003 nM

B4: F5f3_56 (structured_RNA)
RNA: GGGCGACCUAGCGUGAAUCCAACACGCUUGACAUACAAACUGCAUCCAGAUCGCCC
modifications: 2'-fluoro pyrimidines (all C and U)
Kd [1]: 0.92 ± 0.04 nM

— article PMC7858594, “Specific inhibition of FGF5-induced cell proliferation by RNA aptamers”
